The nanobody polyreactivity screen of Harvey et al. (2022)

Assay: yeast display, Sf9 membrane polyspecificity reagent, FACS + sequencing; frameworks hold sequencing errors
In short: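 Galactose induction of a Saccharomyces cerevisiae BJ5465 synthetic nanobody display library ran 36–48 hours. The cells were then stained for 1 hour at 4 °C with 10% biotinylated, detergent-solubilized Sf9 membrane reagent, pulled down on streptavidin microbeads and FACS-sorted into low and high (top ~1%) gates on expression and reagent-binding fluorescence. Labels for polyreactivity follow the gate of origin.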

Sequence	polyreactivity (PSR sort gate)
QVQLVESGGGLVQAGGSLRLSCAASGITFRVNTMGWYRKAPGKETEFVATISYSGDSTYYADSVKGRFTISRDNAKNTVYLQMNSLKPEDTAVYYCATELVFYGRDYWGQGTQVTVSS	low polyreactivity
QVQLVESGGGLVQAGGSLRLSCAASGITFRWNAMGWYRQAPGKERELVAAITTRGGGTYYADSVKGRFTISRDNAKNTVYLQMNSLKPEDTAVYYCAAKKSRYPYNYWGQGTQVTVSS	high polyreactivity
QVQLVESGGGLVQAGGSLRLSCAASGITFRWYAMGWYRQAPGKERELVAAIRSGSSTYYADSVKGRFTISRDNAKNTVYLQMNSLKPEDPAVYYCNARPWYSWGVDYDYWGQGTQVTVSS	low polyreactivity
QVQLVESGGGLVQAGGSLRLSCAASGITFRWYAMGWYRQAPGKERELVAAISSSGGSTYYADSVKGRFTISRDNAKNTVYLQMNSLKPEVTAVYYCAAYTSYASDYWGQGTQVTVSS	high polyreactivity
QVQLVESGGGLVQAGGSLRLSCAASGITFRYYAMGWSRQAPGKERELVAAITRGGRTNYADSVKGRFTISRDNAKNTVYLQMNSLKPEDTAVYYCATGRDSNFGNSYYYWGQGTQVTVSS	high polyreactivity
QVQLVESGGGLVQAGGSLRLSCAASGITFRYYAMGWYRPAPGKERELVASITSGGVNTYYADSVKGRFTISRDNAKNTVYLQMNSLKPEDTAVYYCATTYVGETLTGPGDYWGQGTQVTVSS	low polyreactivity
QVQLVESGGGLVQAGGSLRLSCAASGITFRYYAMGWYRQAPGKERELVATITRGGSTYYADSVKGRFTISRDNAKNTVYLQMNSLKPEDTAVYYCAARQWYRYKVRFDYWGQGTQVTVSS	high polyreactivity
QVQLVESGGGLVQAGGSLRLSCAASGITFRYYAMGWYRQGPGKERELVASITSGGVNTYYADSVKGRFTISRDNANNTDYLQMNSLKPEDTAVFYCATRFSYSALGGYDYWGQGTQVTVSS	low polyreactivity
QVQLVESGGGLVQAGGSLRLSCAASGITFSANAMGWYRQAPGKERELVATITWSGGSTYYADSVKGRFTISRDNAKNTVYLQMNSLKPEDTAVYYCNARSYDEYPYYSYNYWGQGTQVTVSS	low polyreactivity
QVQLVESGGGLVQAGGSLRLSCAASGITFSAYAMGWYRQAPGKERELVAAISWSGGNTYYADSVKGRFTISRDNAKNTVYLQMNSLKPEDTAVYYCAAEREAYNTWFDYWGQGTQVTVSS	high polyreactivity
QVQLVESGGGLVQAGGSLRLSCAASGITFSRNPMGWYRQAPGKEWELVAAISWSGGSTYYADSVKGRYTISRDNAKNTVYLQMNSLKPEDTAVYYCNVGRRERLEGGYWGQGTQVTVSS	high polyreactivity
QVQLVESGGGLVQAGGSLRLSCAASGITFSRYAMGWYRQAPGKERELVAAISKRGGRTYYADSVKGRFTISRDNAKKTDYLQMNSLKPEDTAVYYCATDYYVSTDYNYWGQGTQVTVSS	high polyreactivity
QVQLVESGGGLVQAGGSLRLSCAASGITFSVNAMGWYRQAPGKERELVASISSGGSTNYADSVKGRFTISRDNAKNTVYLQMNSLKPEDTAVYYCAVAYYPHGREGAHFQYGYDYWGQGTQVTVSS	low polyreactivity
QVQLVESGGGLVQAGGSLRLSCAASGITFSVYAMGWYRQAPGTERELVAAISGSAGSTYYADSVKGRFTISRDNAKNTVYLQLNSLKPEDTAVYYCAARLAPKYSPSSYNYWGEGTQVTVSS	high polyreactivity
QVQLVESGGGLVQAGGSLRLSCAASGITFSVYTMGWYRQAPGKERELVAAIDSDGITNYADSVKGRFTISRDNAKNTVYLQMNSLKPEDTAVYYCAKQSGRADGVSGFDYWGQGTQVTVSS	low polyreactivity
QVQLVESGGGLVQAGGSLRLSCAASGITFSWYVMGWSRQAPGKERDLVATITNRGGSTYYADSVKGRFTISRDNAKNTVYLQMNSLKPEDTAVYYCAARKKGSRVGYDYWGQGTQVTVSS	high polyreactivity
QVQLVESGGGLVQAGGSLRLSCAASGITFSYYAMGWYRQAPGKERELVAASTSGGSTKYADSVKGRFTISRDNAKNTVYFQMNSLKPEDTAVYYCAVRIRRSHDYDYWGQGPQVTVSS	low polyreactivity
QVQLVESGGGLVQAGGSLRLSCAASGITFTAYAMGWYRQAPGKERELVATINSTGITNYADSVKGRFTISRDNAKNTVYLQMNSLKPEDTAVYYCAADLLDISSYDGMDYWGHGTQVTVSS	low polyreactivity
QVQLVESGGGLVQAGGSLRLSCAASGITFTGNSMGWYRQAPGKERELVAAISNRGGSTYYADSVKGRFTISRDNAKNTVYLQMNSLKREDTAVYYCRTSTPRRVSGNYWGQGTQVTVSS	high polyreactivity
QVQLVESGGGLVQAGGSLRLSCAASGITFTGYAMGWYRQAPGKERELVAVISETGGSTYADSVKGRFTISRDNAKNTVYLQMNSLKPEDTAVYYCAARLWWPYSTAWAKMDYWGQGTQVTVSS	low polyreactivity
QVQLVESGGGLVQAGGSLRLSCAASGITFTGYGMGWYRQAPGKERELVAAIRLRTGSTYYADSVKGRFTISRDNAKNTVYLQMYSLKPEDTAVYYCAAAFPRYRSRAIRVDYWGQGTQVTVSS	high polyreactivity
QVQLVESGGGLVQAGGSLRLSCAASGITFTKYAMGWYRQAPGNERELVAAITTTGGSTYYADSVKGRFTISRDKAKNTVYLQMTSLKPEETAVYYCATELGWGGFYKYGHASQFDYWGQGTQVTVSS	low polyreactivity

Sequence	polyreactivity (PSR sort gate)
QVQLVESGGGLVQAGGSLRLSCAASGITFTKYVMGWYRQAPGKERELVATIRWGASSTHYADSVKGRFRISRDNAKNTVYFQMNSLKPEDTAVYYCNADCWYGAVYWWFYGFDYWGQGTQVTVSS	low polyreactivity
QVQLVESGGGLVQAGGSLRLSCAASGITFTLYAMGWYRQSPGKERELVAAISRGGGTTYYADSVKGRFTISRDNAKNTVYLQMNSLKPEDTAVYYCATDWHSSGYWGQGTQVTVSS	low polyreactivity
QVQLVESGGGLVQAGGSLRLSCAASGITFTNYAMGWYRQAPGKERELVAAISSRGGRTYYADSVKGRFTISRDNAKNTVYLQMNSLKPEDTAVYYCAASFFQVYGDDYWGQGTQVTVSS	high polyreactivity
QVQLVESGGGLVQAGGSLRLSCAASGITFTPNAMGWYRQAPGTEREFVAAITYSGGSTYYADSVKGRFTISRDNAKNTVYLQMNSLKPEDTAVYYCAAVYDLLYYEAYYYWGQGTQVTVSS	low polyreactivity
QVQLVESGGGLVQAGGSLRLSCAASGITFTRYAMGWYRQAPGKEREFVAAIRRSGGNTYYADSVKGRFTISRDNAKNTVYLQMNSLKPEDTAVYYCAASPDIIGTSGEDDYWGQGSQVTVSS	low polyreactivity
QVQLVESGGGLVQAGGSLRLSCAASGITFTSYVMGWYRQAPGKERELVAAIRWSGGRTYYADSVKGRFTISRDNAKNTVYLQMNSLKPEDTAVYYCNRVTRSHVDYWGQGTQLTVSS	high polyreactivity
QVQLVESGGGLVQAGGSLRLSCAASGITFTVYAMGWYRQAPGKERELVAAINSVSSTNYADSVKGRFTISRDNAKNTVYLQMNSLKPEVTAVYYCAASYRKLPDKKRYGYWGQGTKVTVSS	high polyreactivity
QVQLVESGGGLVQAGGSLRLSCAASGITFTVYAMGWYRQAPGKERELVAAITSTGSTNYADSVKGRFTISRDNAKNTVYLQMNSLKPEDTAVYYCAARRSHQYRGPHFNYWGQGTQVTVSS	low polyreactivity
QVQLVESGGGLVQAGGSLRLSCAASGITFVANAMGWYRQAPGKERELVAAITRGGSTNYADSVKGRFTISRDNAKNTVYLQMNSLKPEDTAVYYCAADYVTRIGRYDYWGQGSQVTVSS	low polyreactivity
QVQLVESGGGLVQAGGSLRLSCAASGITFVFYAMGWYRQAPGKARELVATISYRGTSTYYADSVKGRFTISRDNAKNTVYLQMNSLKPEDTAVSYCAGDTYIYYKTGYGYWGQGTQVTVSS	low polyreactivity
QVQLVESGGGLVQAGGSLRLSCAASGITFVFYAMGWYRQAPGKERELVATITWRTTRTFYADSVKRRFTISRDNAKNTVYLQMNSLKPEDTAVYYCAAGVNSTTRINDYWGQGTQVTVSS	low polyreactivity
QVQLVESGGGLVQAGGSLRLSCAASGITFVKNAMGWYRQAPGKERELVARIRIGGSTSYADSVKGRFTISRDNAKNTVYLQMISLKPEDTAVYYCARYAGRLSYRYEYWGQGTQVTVSS	high polyreactivity
QVQLVESGGGLVQAGGSLRLSCAASGITFVKNAMGWYRQAPGKERELVARIRIGGSTSYADSVKGRFTISRDNAKNTVYLQMNSLKPEDPAVYYCARYAGRLSYRYEFWGQGTQVTLSS	high polyreactivity
QVQLVESGGGLVQAGGSLRLSCAASGITFVNYAMGWYRQAPGKERELVAAISNGGSTYYADSVKGRFTISRDNAKNTVYLQMNSLKPEDTAVYYCAAKPVQKFRPRYGYWGQGTQVTVSS	high polyreactivity
QVQLVESGGGLVQAGGSLRLSCAASGITFVRNAMGWYRQAPGKEREFVAAISGSGVSTYADSVKGRFTISRDNAKNTVDEQMISLKPEDTAVYYCARDFPWSYAWYDYWGQGTLVTVSS	low polyreactivity
QVQLVESGGGLVQAGGSLRLSCAASGITFVSYTMGWYRQAPGTEREFVAAITWNVASTYYADSVKGRFTISRDNAKNTVYLQMNSLKPEDTAVYYCAAGYDWSVITIYDYWGQGTQVTVSS	high polyreactivity
QVQLVESGGGLVQAGGSLRLSCAASGITFVTYAMGWYRQAPGKERELVAAISRSGGNTYYADSVKGRFTISRDNAKNTVYLQMNSLKPEDTAVYYCAAGGHRERDYWGQGTQVTVSS	high polyreactivity
QVQLVESGGGLVQAGGSLRLSCAASGITFVWNAMGWYRQAPGKERELVATISRGGVRTYYADSVKGRFTISRDNAKNTVYLQMNSLKPEDTAVYYCNVDETGVLVAYSFDYWGQGTQVTVSS	low polyreactivity
QVQLVESGGGLVQAGGSLRLSCAASGITFVYYAMGWYRQAPGKERELVAAISVSGGSTYYADSVKGRFTISRDNAKNTVYLQMNSLKPEDTAVYYCAADGYSGIGVREGYWGQGTQVTVSS	high polyreactivity
QVQLVESGGGLVQAGGSLRLSCAASGITFWHNTMGWYRQAPGKERELVAAISWTGGRTYYADSVKGRFTISRDNAKNTVYLQMNSLKPEDTAVYYCAADFSWTPSGNYDSWGQGTQVTVSS	low polyreactivity
QVQLVESGGGLVQAGGSLRLSCAASGITFWKYAMGWYRQAPGKERELVAAISGRGGSTYYADSVKGRFTISRDNAKNTVYLQMNSLKPEDTAVYYCAVGYRGWDGYWGQGTQVTVSS	high polyreactivity
